Starred links: 1 amine or outer side, 2 acyl side, 3 side chain; linkers in the order of their positions; H or OH if unused. Non-standard residues stand in square brackets, D forms with d. *: point of attachment. AC4Abu = α-carboxy-4-aminobutyric acid, O=C(C(CCN[*:1])C(=O)[*:3])[*:2]; Oic = O=C(O)[C@@H]1C[C@@H]2CCCC[C@@H]2N1; Phe(4-Cl) = N[C@@H](Cc1ccc(Cl)cc1)C(=O)O; dPhe(4-Cl) = N[C@H](Cc1ccc(Cl)cc1)C(=O)O; γGlu = O=C(O)[C@H](CCC(=O)[*:2])N[*:1]; 2Nal = N[C@@H](Cc1ccc2ccccc2c1)C(=O)O; NMeR = CN[C@@H](CCCNC(=N)N)C(=O)O; Tridecanoyl = CCCCCCCCCCCCC(=O)*; hArg = N=C(N)NCCCC[C@H](N)C(=O)O; 3Pal = N[C@@H](Cc1cccnc1)C(=O)O; Cha = N[C@@H](CC1CCCCC1)C(=O)O; αMeL = CC(C)C[C@](C)(N)C(=O)O; β3hL = CC(C)C[C@H](N)CC(=O)O; β3hP = O=C(O)C[C@@H]1CCCN1; Nle = CCCC[C@H](N)C(=O)O; AEEA = NCCOCCOCC(=O)O; βAla = NCCC(=O)O; BLys = β-lysine
T1: human APJ receptor (human, UniProt P35414 1-380)
T1 sequence (looked up): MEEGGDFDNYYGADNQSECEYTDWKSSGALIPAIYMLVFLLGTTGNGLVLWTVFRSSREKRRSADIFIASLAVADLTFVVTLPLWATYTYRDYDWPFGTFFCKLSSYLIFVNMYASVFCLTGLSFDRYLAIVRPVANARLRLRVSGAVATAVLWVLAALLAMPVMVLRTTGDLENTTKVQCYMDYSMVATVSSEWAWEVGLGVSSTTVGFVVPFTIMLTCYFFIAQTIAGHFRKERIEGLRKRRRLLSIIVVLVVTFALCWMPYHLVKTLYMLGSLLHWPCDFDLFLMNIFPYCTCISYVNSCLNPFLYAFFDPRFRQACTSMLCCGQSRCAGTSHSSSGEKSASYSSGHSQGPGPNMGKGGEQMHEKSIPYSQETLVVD

T2: rat APJ receptor (rat, UniProt Q9JHG3 1-377)
T2 sequence (looked up): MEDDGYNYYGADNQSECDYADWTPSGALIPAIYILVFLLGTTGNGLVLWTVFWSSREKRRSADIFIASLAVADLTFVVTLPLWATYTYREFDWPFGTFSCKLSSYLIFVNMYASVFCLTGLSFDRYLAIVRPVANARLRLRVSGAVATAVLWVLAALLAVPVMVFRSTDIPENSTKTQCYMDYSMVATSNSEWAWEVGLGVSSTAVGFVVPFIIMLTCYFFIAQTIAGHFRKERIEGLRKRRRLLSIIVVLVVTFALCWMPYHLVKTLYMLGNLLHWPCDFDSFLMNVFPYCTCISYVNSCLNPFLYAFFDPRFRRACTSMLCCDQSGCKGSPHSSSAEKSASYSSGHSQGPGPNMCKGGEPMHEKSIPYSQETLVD


What was measured:
[1] = molecular target: T1, human APJ receptor; assay: cell-based or functional assay
[2] = molecular target: T2, rat APJ receptor; assay: cell-based or functional assay

| Binder | EC50 Human APJ Receptor (GTPγS assay) [1] [nM] | EC50 Rat APJ Receptor (GTPγS assay) [2] [nM] |
| --- | --- | --- |
| Tridecanoyl-[γGlu][AEEA][AEEA]Q[hArg]P[NMeR][αMeL]SHKG[Oic][Nle]P[Phe(4-Cl)]-OH (SMILES CCCCCCCCCCCCC(=O)N[C@@H](CCC(=O)NCCOCCOCC(=O)NCCOCCOCC(=O)N[C@@H](CCC(N)=O)C(=O)N[C@@H](CCCCNC(=N)N)C(=O)N1CCC[C@H]1C(=O)N(C)[C@@H](CCCNC(=N)N)C(=O)N[C@@](C)(CC(C)C)C(=O)N[C@@H](CO)C(=O)N[C@@H](Cc1c[nH]cn1)C(=O)N[C@@H](CCCCN)C(=O)NCC(=O)N1[C@H](C(=O)N[C@@H](CCCC)C(=O)N2CCC[C@H]2C(=O)N[C@@H](Cc2ccc(Cl)cc2)C(=O)O)C[C@@H]2CCCC[C@@H]21)C(=O)O) [Apelin polypeptide SEQ ID NO: 359] | 0.0529 | 0.116 |
| XXXQRPRLSHKGPXPF ({TDA}[AC4Abu][Aeea][Aeea]Q[hArg]P[NMeArg][aMeLeu]SHKGP[Nle]P[4-Cl-F]{COOH}) [Apelin polypeptide SEQ ID NO: 460] | 0.0347 | 0.0628 |
| Tridecanoyl-[γGlu][AEEA][AEEA]Q[hArg]P[NMeR][αMeL]SHKGP[Nle]P[2Nal]-OH (SMILES CCCCCCCCCCCCC(=O)N[C@@H](CCC(=O)NCCOCCOCC(=O)NCCOCCOCC(=O)N[C@@H](CCC(N)=O)C(=O)N[C@@H](CCCCNC(=N)N)C(=O)N1CCC[C@H]1C(=O)N(C)[C@@H](CCCNC(=N)N)C(=O)N[C@@](C)(CC(C)C)C(=O)N[C@@H](CO)C(=O)N[C@@H](Cc1c[nH]cn1)C(=O)N[C@@H](CCCCN)C(=O)NCC(=O)N1CCC[C@H]1C(=O)N[C@@H](CCCC)C(=O)N1CCC[C@H]1C(=O)N[C@@H](Cc1ccc2ccccc2c1)C(=O)O)C(=O)O) [Apelin polypeptide SEQ ID NO: 473] | 0.099 | 0.465 |
| Tridecanoyl-[γGlu][AEEA][AEEA][dQ][hArg]P[NMeR][β3hL]SHKG[Oic][Nle]P[dPhe(4-Cl)]-OH (SMILES CCCCCCCCCCCCC(=O)N[C@@H](CCC(=O)NCCOCCOCC(=O)NCCOCCOCC(=O)N[C@H](CCC(N)=O)C(=O)N[C@@H](CCCCNC(=N)N)C(=O)N1CCC[C@H]1C(=O)N(C)[C@@H](CCCNC(=N)N)C(=O)N[C@H](CC(=O)N[C@@H](CO)C(=O)N[C@@H](Cc1c[nH]cn1)C(=O)N[C@@H](CCCCN)C(=O)NCC(=O)N1[C@H](C(=O)N[C@@H](CCCC)C(=O)N2CCC[C@H]2C(=O)N[C@H](Cc2ccc(Cl)cc2)C(=O)O)C[C@@H]2CCCC[C@@H]21)CC(C)C)C(=O)O) [Apelin polypeptide SEQ ID NO: 302] | 16.5 | 14.3 |
| Tridecanoyl-[AC4Abu][AEEA][AEEA][dQ][hArg]P[NMeR][Cha][βAla]HKG[Oic][Nle]P[dPhe(4-Cl)]-OH (SMILES CCCCCCCCCCCCC(=O)NCCC(C(=O)O)C(=O)NCCOCCOCC(=O)NCCOCCOCC(=O)N[C@H](CCC(N)=O)C(=O)N[C@@H](CCCCNC(=N)N)C(=O)N1CCC[C@H]1C(=O)N(C)[C@@H](CCCNC(=N)N)C(=O)N[C@@H](CC1CCCCC1)C(=O)NCCC(=O)N[C@@H](Cc1c[nH]cn1)C(=O)N[C@@H](CCCCN)C(=O)NCC(=O)N1[C@H](C(=O)N[C@@H](CCCC)C(=O)N2CCC[C@H]2C(=O)N[C@H](Cc2ccc(Cl)cc2)C(=O)O)C[C@@H]2CCCC[C@@H]21) [Apelin polypeptide SEQ ID NO: 303] | 79.2 | 74.1 |
| Tridecanoyl-[γGlu][AEEA][AEEA][dQ][hArg]P[NMeR][Cha]S[βAla]KG[Oic][Nle]P[dPhe(4-Cl)]-OH (SMILES CCCCCCCCCCCCC(=O)N[C@@H](CCC(=O)NCCOCCOCC(=O)NCCOCCOCC(=O)N[C@H](CCC(N)=O)C(=O)N[C@@H](CCCCNC(=N)N)C(=O)N1CCC[C@H]1C(=O)N(C)[C@@H](CCCNC(=N)N)C(=O)N[C@@H](CC1CCCCC1)C(=O)N[C@@H](CO)C(=O)NCCC(=O)N[C@@H](CCCCN)C(=O)NCC(=O)N1[C@H](C(=O)N[C@@H](CCCC)C(=O)N2CCC[C@H]2C(=O)N[C@H](Cc2ccc(Cl)cc2)C(=O)O)C[C@@H]2CCCC[C@@H]21)C(=O)O) [Apelin polypeptide SEQ ID NO: 304] | 139 | 260 |
| Tridecanoyl-[γGlu][AEEA][AEEA][dQ][hArg]P[NMeR][Cha]SH[3Pal]G[Oic][Nle]P[dPhe(4-Cl)]-OH (SMILES CCCCCCCCCCCCC(=O)N[C@@H](CCC(=O)NCCOCCOCC(=O)NCCOCCOCC(=O)N[C@H](CCC(N)=O)C(=O)N[C@@H](CCCCNC(=N)N)C(=O)N1CCC[C@H]1C(=O)N(C)[C@@H](CCCNC(=N)N)C(=O)N[C@@H](CC1CCCCC1)C(=O)N[C@@H](CO)C(=O)N[C@@H](Cc1c[nH]cn1)C(=O)N[C@@H](Cc1cccnc1)C(=O)NCC(=O)N1[C@H](C(=O)N[C@@H](CCCC)C(=O)N2CCC[C@H]2C(=O)N[C@H](Cc2ccc(Cl)cc2)C(=O)O)C[C@@H]2CCCC[C@@H]21)C(=O)O) [Apelin polypeptide SEQ ID NO: 305] | 78 | 66.7 |
| Tridecanoyl-[γGlu][AEEA][AEEA][dQ][hArg]P[NMeR][Cha]SH[βAla]G[Oic][Nle]P[dPhe(4-Cl)]-OH (SMILES CCCCCCCCCCCCC(=O)N[C@@H](CCC(=O)NCCOCCOCC(=O)NCCOCCOCC(=O)N[C@H](CCC(N)=O)C(=O)N[C@@H](CCCCNC(=N)N)C(=O)N1CCC[C@H]1C(=O)N(C)[C@@H](CCCNC(=N)N)C(=O)N[C@@H](CC1CCCCC1)C(=O)N[C@@H](CO)C(=O)N[C@@H](Cc1c[nH]cn1)C(=O)NCCC(=O)NCC(=O)N1[C@H](C(=O)N[C@@H](CCCC)C(=O)N2CCC[C@H]2C(=O)N[C@H](Cc2ccc(Cl)cc2)C(=O)O)C[C@@H]2CCCC[C@@H]21)C(=O)O) [Apelin polypeptide SEQ ID NO: 293] | 109 | 110 |
| Tridecanoyl-[γGlu][AEEA][AEEA][dQ][hArg]P[NMeR][Cha]SH[BLys]G[Oic][Nle]P[dPhe(4-Cl)]-OH [Apelin polypeptide SEQ ID NO: 306] | 74.1 | 136 |
| Tridecanoyl-[γGlu][AEEA][AEEA][dQ][hArg]P[NMeR][Cha]SHK[βAla][Oic][Nle]P[dPhe(4-Cl)]-OH (SMILES CCCCCCCCCCCCC(=O)N[C@@H](CCC(=O)NCCOCCOCC(=O)NCCOCCOCC(=O)N[C@H](CCC(N)=O)C(=O)N[C@@H](CCCCNC(=N)N)C(=O)N1CCC[C@H]1C(=O)N(C)[C@@H](CCCNC(=N)N)C(=O)N[C@@H](CC1CCCCC1)C(=O)N[C@@H](CO)C(=O)N[C@@H](Cc1c[nH]cn1)C(=O)N[C@@H](CCCCN)C(=O)NCCC(=O)N1[C@H](C(=O)N[C@@H](CCCC)C(=O)N2CCC[C@H]2C(=O)N[C@H](Cc2ccc(Cl)cc2)C(=O)O)C[C@@H]2CCCC[C@@H]21)C(=O)O) [Apelin polypeptide SEQ ID NO: 294] | > 4170 | 30.7 |
| Tridecanoyl-[γGlu][AEEA][AEEA][dQ][hArg]P[NMeR][Cha]SHKG[Oic][Nle][βAla][dPhe(4-Cl)]-OH (SMILES CCCCCCCCCCCCC(=O)N[C@@H](CCC(=O)NCCOCCOCC(=O)NCCOCCOCC(=O)N[C@H](CCC(N)=O)C(=O)N[C@@H](CCCCNC(=N)N)C(=O)N1CCC[C@H]1C(=O)N(C)[C@@H](CCCNC(=N)N)C(=O)N[C@@H](CC1CCCCC1)C(=O)N[C@@H](CO)C(=O)N[C@@H](Cc1c[nH]cn1)C(=O)N[C@@H](CCCCN)C(=O)NCC(=O)N1[C@H](C(=O)N[C@@H](CCCC)C(=O)NCCC(=O)N[C@H](Cc2ccc(Cl)cc2)C(=O)O)C[C@@H]2CCCC[C@@H]21)C(=O)O) [Apelin polypeptide SEQ ID NO: 295] | 3.29 | 10.4 |
| Tridecanoyl-[γGlu][AEEA][AEEA][dQ][hArg]P[NMeR][Cha]SHKG[Oic][Nle][β3hP][dPhe(4-Cl)]-OH (SMILES CCCCCCCCCCCCC(=O)N[C@@H](CCC(=O)NCCOCCOCC(=O)NCCOCCOCC(=O)N[C@H](CCC(N)=O)C(=O)N[C@@H](CCCCNC(=N)N)C(=O)N1CCC[C@H]1C(=O)N(C)[C@@H](CCCNC(=N)N)C(=O)N[C@@H](CC1CCCCC1)C(=O)N[C@@H](CO)C(=O)N[C@@H](Cc1c[nH]cn1)C(=O)N[C@@H](CCCCN)C(=O)NCC(=O)N1[C@H](C(=O)N[C@@H](CCCC)C(=O)N2CCC[C@H]2CC(=O)N[C@H](Cc2ccc(Cl)cc2)C(=O)O)C[C@@H]2CCCC[C@@H]21)C(=O)O) [Apelin polypeptide SEQ ID NO: 296] | 2.75 | 2.32 |
